Each block holds one substance with its values, some of them ahead of it.
Legend:
[1] = target: Cetuximab light chain Q124E_V133W_S176T_T178L_T180E; assay: SMCA co-expression, LC-MS; competing light chain m2
[2] = target: Cetuximab light chain F116A_V133G_L135V_S176R; assay: SMCA co-expression, LC-MS; competing light chain m36
[3] = target: Cetuximab light chain F116A_V133G_L135V_S176R; assay: SMCA co-expression, LC-MS; competing light chain m36; estimated change (***)
[4] = target: Cetuximab light chain V133G_N137K_S174R_S176R; assay: SMCA co-expression, LC-MS; competing light chain m16; estimated change (***)
[5] = target: Cetuximab light chain V133G_N137K_S174R_S176R; assay: SMCA co-expression, LC-MS; competing light chain m24
[6] = target: Cetuximab light chain Q124R_V133A_S176T_T178R; assay: SMCA co-expression, LC-MS; competing light chain m12
[7] = target: Cetuximab light chain Q124R_V133A_S176T_T178R; assay: SMCA co-expression, LC-MS; competing light chain m12; estimated change (***)
[8] = target: D3H44 light chain Q124E_Q160E_T180E; assay: SMCA: four chains co-expressed in CHO-3E7, protein A, LC-MS; competing light chain m21
[9] = target: D3H44 light chain Q124E_Q160E_T180E; assay: SMCA: four chains co-expressed in CHO-3E7, protein A, LC-MS; competing light chain m24
[10] = target: D3H44 light chain Q124E_V133E; assay: SMCA: four chains co-expressed in CHO-3E7, protein A, LC-MS; competing light chain m45
[11] = target: D3H44 light chain Q124E_V133E; assay: SMCA: four chains co-expressed in CHO-3E7, protein A, LC-MS; competing light chain m35
[12] = target: D3H44 light chain Q38R_Q124R_Q160K_T178R; assay: SMCA: four chains co-expressed in CHO-3E7, protein A, LC-MS; competing light chain m41
[13] = target: D3H44 light chain Q38E_Q124E_Q160E_T180E; assay: SMCA: four chains co-expressed in CHO-3E7, protein A, LC-MS; competing light chain m28
[14] = target: D3H44 light chain Q124E_Q160E_T180E; assay: SMCA: four chains co-expressed in CHO-3E7, protein A, LC-MS; competing light chain m18
[15] = target: D3H44 light chain Q124E_Q160E_T178E; assay: SMCA: four chains co-expressed in CHO-3E7, protein A, LC-MS; competing light chain m35
[16] = target: D3H44 light chain Q124E_Q160E_T180E; assay: SMCA: H1, H2, L1, L2 co-expressed in CHO-3E7, protein A, LC-MS; competitor light chain m44
[17] = target: D3H44 light chain Q124E_N137K_Q160E_S174R_T180E; assay: SMCA: 2 heavy + 2 light chains co-expressed, protein A, LC-MS; competing light chain m38
[18] = target: D3H44 light chain F116A_V133G_L135V_S176R; assay: SMCA co-expression, LC-MS; competing light chain m36
[19] = target: D3H44 light chain F116A_V133G_L135V_S176R; assay: SMCA co-expression, LC-MS; competing light chain m32; estimated change (***)
[20] = target: D3H44 light chain F116A_V133G_L135V_S176R; assay: SMCA: 2 heavy + 2 light chains co-expressed, protein A, LC-MS; competing light chain m58
[21] = target: D3H44 light chain F116A_V133G_L135V_S176R; assay: SMCA co-expression, LC-MS; competing light chain m36; estimated change (***)
[22] = target: D3H44 light chain F116A_V133G_L135V_S176R; assay: SMCA co-expression, LC-MS; competing light chain m32
[23] = target: D3H44 light chain V133G_N137K_S174R_S176R; assay: SMCA co-expression, LC-MS; competing light chain m20
[24] = target: D3H44 light chain V133G_N137K_S174R_S176R; assay: SMCA: 2 heavy + 2 light chains co-expressed, protein A, LC-MS; competing light chain m48
[25] = target: D3H44 light chain V133G_N137K_S174R_S176R; assay: SMCA co-expression, LC-MS; competing light chain m24
[26] = target: D3H44 light chain Q124R_V133A_S176T_T178R; assay: SMCA co-expression, LC-MS; competing light chain m12
[27] = target: D3H44 light chain Q124R_V133A_S176T_T178R; assay: SMCA co-expression, LC-MS; competing light chain m8
[28] = target: D3H44 light chain Q124R_Q160K_T178R; assay: SMCA: H1, H2, L1, L2 co-expressed in CHO-3E7, protein A, LC-MS; competitor light chain m28
[29] = target: D3H44 light chain Q38R_S131K; assay: SMCA: H1, H2, L1, L2 co-expressed in CHO-3E7, protein A, LC-MS; competitor light chain m4
[30] = target: D3H44 light chain Q38E_Q124E_Q160E_T180E; assay: SMCA: H1, H2, L1, L2 co-expressed in CHO-3E7, protein A, LC-MS; competitor light chain m8
[31] = target: Trastuzumab light chain P44F_S131K; assay: SMCA: four chains co-expressed in CHO-3E7, protein A, LC-MS; competing light chain m16
[32] = target: Trastuzumab light chain P44F_Q124R_Q160K_T178R; assay: as above
[33] = target: Trastuzumab light chain Q38R_S131K; assay: SMCA: four chains co-expressed in CHO-3E7, protein A, LC-MS; competing light chain m26
[34] = target: Trastuzumab light chain Q38E_Q124E_Q160E_T180E; assay: SMCA: four chains co-expressed in CHO-3E7, protein A, LC-MS; competing light chain m39
[35] = target: cetuximab light chain of SMCA design 9820-9823_1 (trastuzumab/cetuximab bispecific system), Q38R_Q124R_Q160K_T178R; assay: SMCA, LC-MS after co-expression of the four chains; difference from the wild-type trastuzumab/cetuximab construct at the same DNA ratio
[36] = target: cetuximab light chain of SMCA design 9820-9823_1 (trastuzumab/cetuximab bispecific system), Q38R_Q124R_Q160K_T178R; assay: SMCA: H1, H2, L1 and L2 co-expressed in CHO-3E7 cells, protein A purification, deglycosylation, LC-MS; competing light chain is the trastuzumab light chain (L1)
[37] = target: trastuzumab light chain of SMCA design 9820-9823_1 (trastuzumab/cetuximab bispecific system), Q38E_Q124E_Q160E_T180E
[38] = target: trastuzumab light chain of SMCA design 9820-9823_1 (trastuzumab/cetuximab bispecific system), Q38E_Q124E_Q160E_T180E; assay: SMCA, LC-MS after co-expression of the four chains; difference from the wild-type trastuzumab/cetuximab construct at the same DNA ratio

- Change in % H2L2 Pairing (over all H2 species) with respect to wild type [1]: 1.7%
Substance: Cetuximab heavy chain L124A_L143F_Q179K

- % H2L2 Pairing (over all H2 species) [2]: 42.1%
- Change in % H2L2 Pairing (over all H2 species) with respect to wild type [3]: 17%
Substance: Cetuximab heavy chain L124E_A139W

- Change in % H2L2 Pairing (over all H2 species) with respect to wild type [4]: 1.6%
- % H2L2 Pairing (over all H2 species) [5]: 44%
- Change in % H2L2 Pairing (over all H2 species) with respect to wild type [5]: 14.4%
Substance: Cetuximab heavy chain L124E_H172T

- % H2L2 Pairing (over all H2 species) [6]: 58.1%
- Change in % H2L2 Pairing (over all H2 species) with respect to wild type [7]: 33%
Substance: Cetuximab heavy chain L124W_L143E_K145T_Q179E

- % H1L1 Pairing (over all H1 species) [8]: 100%
Substance: D3H44 full-length heavy chain D146G_Q179K (from UniProt P0DOX5 2-448)

- % H1L1 Pairing (over all H1 species) [9]: 100%
Substance: D3H44 full-length heavy chain H172R_S186R (from UniProt P0DOX5 2-448)

- % H1L1 Pairing (over all H1 species) [10]: 89.2%
- % H1L1 Pairing (over all H1 species) [11]: 97.1%
Substance: D3H44 full-length heavy chain L143R (from UniProt P0DOX5 2-448)

- % H1L1 Pairing (over all H1 species) [12]: 86.6%
Substance: D3H44 full-length heavy chain Q39E_L143E_K145T_Q179E (from UniProt P0DOX5 2-448)

- % H1L1 Pairing (over all H1 species) [13]: 100%
Substance: D3H44 full-length heavy chain Q39R_S186R (from UniProt P0DOX5 2-448)

- % H1L1 Pairing (over all H1 species) [14]: 100%
Substance: D3H44 full-length heavy chain Q179K (from UniProt P0DOX5 2-448)

- % H1L1 Pairing (over all H1 species) [15]: 98.2%
Substance: D3H44 full-length heavy chain S186K (from UniProt P0DOX5 2-448)

- % H1L1 Pairing (over all H1 species) [16]: 100%
Substance: D3H44 heavy chain D146G_Q179K (from UniProt P0DOX5 2-448)

- % H1L1 Pairing (over all H1 species) [17]: 100%
Substance: D3H44 heavy chain H172T_Q179K (from UniProt P0DOX5 2-448)

- % H1L1 Pairing (over all H1 species) [18]: 46.8%
- Change in % H1L1 Pairing (over all H1 species) with respect to wild type [19]: 43.3%
- % H1L1 Pairing (over all H1 species) [20]: 100%
- Change in % H1L1 Pairing (over all H1 species) with respect to wild type [21]: 25.8%
- % H1L1 Pairing (over all H1 species) [22]: 100%
Substance: D3H44 heavy chain L124E_A139W (from UniProt P0DOX5 2-448)

- % H1L1 Pairing (over all H1 species) [23]: 100%
- Change in % H1L1 Pairing (over all H1 species) with respect to wild type [23]: 38.1%
- % H1L1 Pairing (over all H1 species) [24]: 100%
- % H1L1 Pairing (over all H1 species) [25]: 50.5%
- Change in % H1L1 Pairing (over all H1 species) with respect to wild type [25]: 9.9%
Substance: D3H44 heavy chain L124E_H172T (from UniProt P0DOX5 2-448)

- % H1L1 Pairing (over all H1 species) [26]: 47.7%
- Change in % H1L1 Pairing (over all H1 species) with respect to wild type [26]: 7.1%
- Change in % H1L1 Pairing (over all H1 species) with respect to wild type [27]: 40.4%
Substance: D3H44 heavy chain L124W_L143E_K145T_Q179E (from UniProt P0DOX5 2-448)

- % H1L1 Pairing (over all H1 species) [28]: 100%
Substance: D3H44 heavy chain L143E_K145T_H172R (from UniProt P0DOX5 2-448)

- % H1L1 Pairing (over all H1 species) [29]: 100%
Substance: D3H44 heavy chain Q39E_K145T_Q179E (from UniProt P0DOX5 2-448)

- % H1L1 Pairing (over all H1 species) [30]: 100%
Substance: D3H44 heavy chain Q39R_S186R (from UniProt P0DOX5 2-448)

- % H2L2 Pairing (over all H2 species) [31]: 96.3%
Substance: Trastuzumab full-length heavy chain L45P_K145T_H172R_Q179E (from UniProt P0DOX5 2-448)

- % H2L2 Pairing (over all H2 species) [32]: 94.8%
Substance: Trastuzumab full-length heavy chain L45P_L143E_K145T (from UniProt P0DOX5 2-448)

- % H2L2 Pairing (over all H2 species) [33]: 94.3%
Substance: Trastuzumab full-length heavy chain Q39E_K145T_Q179E (from UniProt P0DOX5 2-448)

- % H2L2 Pairing (over all H2 species) [34]: 100%
Substance: Trastuzumab full-length heavy chain Q39R_H172R_Q179K (from UniProt P0DOX5 2-448)

- Change in % H2L2 Pairing (over all H2 species) with respect to wild type [35]: 22.7%
- % H2L2 Pairing (over all H2 species) [36]: 52.3%
Substance: cetuximab full-length heavy chain of SMCA design 9820-9823_1 (trastuzumab/cetuximab bispecific system), Q39E_L143E_K145T_Q179E

- % H1L1 Pairing (over all H1 species) [37]: 100%
- Change in % H1L1 Pairing (over all H1 species) with respect to wild type [38]: 6%
Substance: trastuzumab full-length heavy chain of SMCA design 9820-9823_1 (trastuzumab/cetuximab bispecific system), Q39R_H172R_Q179K (from UniProt P0DOX5 2-448)

Source: US11306156
